# From patent US20250042961A1, “P53 PEPTIDOMIMETIC MACROCYCLES” (MERCK SHARP & DOHME LLC, priority 2021, published 2025)
# Bridges are numbered along the chain shown (N, C = ends). [ ]: non-standard residue; d: D form. dPhe(4-CF3) = N[C@H](Cc1ccc(C(F)(F)F)cc1)C(=O)O; dTrp(6-F) = N[C@H](Cc1c[nH]c2cc(F)ccc12)C(=O)O; R5 = C=CCCC[C@@](C)(N)C(=O)O; FAM = carboxyfluorescein
# T1: MDM4 protein (human), O15151
# T1 chain: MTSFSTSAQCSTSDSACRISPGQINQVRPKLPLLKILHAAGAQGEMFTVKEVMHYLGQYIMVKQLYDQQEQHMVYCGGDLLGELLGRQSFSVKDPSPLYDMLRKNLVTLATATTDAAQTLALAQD
# Key:
# [1] = target: T1, MDM4 protein (human), O15151; assay: direct fluorescence anisotropy titration of MDM4 against 50 nM FAM-labeled peptide; apparent Kd, 1:1 model
# [2] = target: MDM2 (in HCT116 cells) (human), Q00987; assay: cell-based or functional assay
# [3] = target: Purified MDM2 (1-125) protein (human MDM2 1-125 sequence comprising a modified TEV cleavage site, pNIC-GST fusion) (human), Q00987; assay: competitive fluorescence anisotropy (FP) against FAM-labeled 12/1 peptide on MDM2 (1-125); apparent Kd
# Sequence of Purified MDM2 (1-125) protein (human MDM2 1-125 sequence comprising a modified TEV cleavage site, pNIC-GST fusion) (human), Q00987 (Q00987 1-125 limits assumed): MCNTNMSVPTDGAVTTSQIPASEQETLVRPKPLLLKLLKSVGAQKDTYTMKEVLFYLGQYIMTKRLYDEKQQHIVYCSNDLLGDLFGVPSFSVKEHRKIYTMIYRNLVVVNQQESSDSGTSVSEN
Kd [1] [nM],"p53 activity EC50 (µM) (0% FBS, 4 h) [2]","p53 activity EC50 (µM) (10% FBS, 16 h) [2]",Kd [3] [nM],Binder
4,,,,{FAM}-RFMDYWEGL-NH2 (also: places C-terminal amide at E7) [carboxyfluorescein (FAM)-labeled 12/1 peptide 13 (FAM-…-NH2)]
,0.61,0.28,3.2,"Ac-[dT][dA][dTrp(6-F)][dY][dA][R5][dPhe(4-CF3)][dE][dQ][R5][dL][dS][dA][dA][dA][dA][dA][dA]-NH2 (staple 6-10; also: mixture of cis-trans isomers) [Acetyl-^DPMI-δ-(6-10 olefin staple) (D-K9D-Q, D-R12D-S, 6x(D-A) polypeptide tail)-NH2]"
,50,> 50,21.7,"Ac-[dT][dA][dTrp(6-F)][dY][dA][R5][dPhe(4-CF3)][dE][dQ][R5][dL][dS][dA][dA][dA][dA][dA][dA][dA][dA][dA]-NH2 (staple 6-10; also: mixture of cis-trans isomers) [Acetyl-^DPMI-δ-(6-10 olefin staple) (D-K9D-Q, D-R12D-S, 9x(D-A) polypeptide tail)-NH2]"
